From the Immune Epitope Database (IEDB)
Each block holds one sequence with its values, some of them ahead of it.

Assays:
[1] = molecular target: HLA-A*32:01; experiment: IEDB peptide-MHC binding, purified MHC/competitive/radioactivity; filed as Kd, often an IC50 or EC50 that approximates it; ≥ and ≤ were set here for values at or beyond the usual limits of such assays
[2] = molecular target: HLA-A*24:02; experiment: as above
[3] = molecular target: HLA-A*29:02; experiment: as above
[4] = molecular target: HLA-A*23:01; experiment: as above
[5] = molecular target: HLA-A*01:01; experiment: as above
[6] = molecular target: HLA-A*26:01; experiment: as above
[7] = molecular target: HLA-A*30:02; experiment: as above
[8] = molecular target: HLA-A*03:01; experiment: as above
[9] = molecular target: HLA-A*68:01; experiment: as above
[10] = molecular target: HLA-A*33:01; experiment: as above
[11] = molecular target: HLA-A*31:01; experiment: as above
[12] = molecular target: HLA-A*11:01; experiment: as above
[13] = molecular target: HLA-B*44:02; experiment: as above; conditions: source organism: Dengue virus 3 Martinique/1243/1999
[14] = molecular target: HLA-A*26:01; experiment: IEDB peptide-MHC binding, purified MHC/direct/fluorescence; filed as Kd, often an IC50 or EC50 that approximates it; ≥ and ≤ were set here for values at or beyond the usual limits of such assays; conditions: source organism: Vibrio vulnificus CMCP6
[15] = molecular target: HLA-B*40:01; experiment: as above; conditions: source organism: SARS-CoV1
[16] = molecular target: HLA-B*15:01; experiment: as above; conditions: source organism: SARS-CoV1
[17] = molecular target: HLA-A*11:01; experiment: as above; conditions: source organism: SARS-CoV1
[18] = source organism: Vaccinia virus WR
[19] = source organism: Mammarenavirus machupoense
[20] = source organism: Mammarenavirus lassaense
[21] = source organism: Dengue virus 4 Dominica/814669/1981
[22] = source organism: Dengue virus 2 Jamaica/1409/1983
[23] = source organism: Triticum aestivum
[24] = source organism: SARS coronavirus Tor2
[25] = source organism: Dengue virus 3 Martinique/1243/1999
[26] = source organism: Vaccinia virus Copenhagen
[27] = source organism: Lassa virus GA391
[28] = source organism: Mammarenavirus guanaritoense

Sequence: AMFTAALNI
Kd [1, 18]: 0.123 µM

Sequence: EMICFHEFL
Kd [2, 19]: ≥ 40.9 µM
Kd [3, 19]: 11.3 µM
Kd [4, 19]: 6.96 µM

Sequence: ESDSKPQKV
Kd [5, 20]: 0.18 µM
Kd [2, 20]: ≥ 77.5 µM
Kd [6, 20]: ≥ 77.9 µM
Kd [3, 20]: ≥ 78.9 µM
Kd [4, 20]: ≥ 77.7 µM
Kd [7, 20]: ≥ 76.9 µM

Sequence: KMFESTYRG
Kd [1, 21]: 0.907 µM

Sequence: VDNVHTWTEQ
Kd [1, 21]: ≥ 34.1 µM

Sequence: LTGYGTVTM
Kd [1, 22]: 15.4 µM

Kd [5, 23]: 0.678 µM
Kd [8, 23]: ≥ 21.7 µM
Kd [9, 23]: ≥ 70.2 µM
Kd [2, 23]: ≥ 70.3 µM
Kd [6, 23]: ≥ 102 µM
Kd [3, 23]: 12 µM
Kd [4, 23]: ≥ 39 µM
Kd [7, 23]: 0.26 µM
Kd [10, 23]: ≥ 70 µM
Kd [11, 23]: ≥ 47.2 µM
Kd [12, 23]: ≥ 22.1 µM
Sequence: KSQVLQQSTY

Sequence: LSFKELLVY
Kd [5, 24]: 0.0853 µM
Kd [2, 24]: 9.23 µM
Kd [6, 24]: 10.9 µM
Kd [3, 24]: 0.00155 µM
Kd [4, 24]: 2.49 µM
Kd [7, 24]: 0.0508 µM

Sequence: AWMVHRQWFF
Kd [2, 25]: 0.0047 µM
Kd [4, 25]: 0.00948 µM
Kd [13]: 2.21 µM

Sequence: DVFCDSKLM
Kd [6, 22]: 1.88 µM

Sequence: LLMYNLLTI
Kd [1, 26]: 0.0717 µM

Sequence: YCNYSRYWY
Kd [5, 27]: ≥ 34.4 µM
Kd [2, 27]: ≥ 77.5 µM
Kd [6, 27]: ≥ 77.9 µM
Kd [3, 27]: 1.23 µM
Kd [4, 27]: ≥ 36.9 µM
Kd [7, 27]: 0.818 µM

Sequence: DLIKKSDAKR
Kd [8, 18]: 6.37 µM
Kd [9, 18]: 0.0139 µM
Kd [3, 18]: 0.0287 µM
Kd [10, 18]: 0.00897 µM
Kd [11, 18]: 0.00396 µM
Kd [12, 18]: 12.5 µM

Sequence: LIPLWMAGL
Kd [14]: 8.98 µM

Sequence: RMLINRFTM
Kd [1, 22]: 0.0957 µM

Sequence: FTILCLVPAY
Kd [5, 24]: 0.456 µM
Kd [2, 24]: ≥ 70.3 µM
Kd [6, 24]: 0.0106 µM
Kd [3, 24]: 0.0155 µM
Kd [4, 24]: ≥ 70 µM
Kd [7, 24]: 0.329 µM

Sequence: VPDIPELSY
Kd [5, 28]: 3.07 µM
Kd [2, 28]: ≥ 77.5 µM
Kd [6, 28]: ≥ 49.3 µM
Kd [3, 28]: 11.7 µM
Kd [4, 28]: ≥ 77.7 µM
Kd [7, 28]: ≥ 25.3 µM

Sequence: EVTAKWLWGF
Kd ([6]; source organism: Dengue virus 1 Brazil/97-11/1997): 0.0807 µM

Sequence: AEDMLNPNY
Kd [5, 24]: ≥ 87.7 µM
Kd [2, 24]: ≥ 77.6 µM
Kd [6, 24]: ≥ 86.9 µM
Kd [3, 24]: 3.8 µM
Kd [4, 24]: ≥ 77.8 µM
Kd [7, 24]: 12.9 µM
Kd [15]: 4.39 µM

Sequence: AIMFFPRTI
Kd [1, 18]: 0.00112 µM

Sequence: TVIEELEKL
Kd ([6]; source organism: Dengue virus 4 Philippines/H241/1956): 0.496 µM

Sequence: QYIYMGEPL
Kd [4, 22]: 0.205 µM

Sequence: SIIFINYTM
Kd [1, 26]: 0.00651 µM

Sequence: QCGDPSSFEY
Kd [5, 19]: 0.5 µM
Kd [2, 19]: ≥ 70.3 µM
Kd [6, 19]: ≥ 69.7 µM
Kd [3, 19]: 0.6 µM
Kd [4, 19]: ≥ 68.8 µM
Kd [7, 19]: 1.58 µM

Sequence: LQSLENVAY
Kd [5, 24]: ≥ 42.3 µM
Kd [2, 24]: ≥ 77.6 µM
Kd [6, 24]: ≥ 81.5 µM
Kd [3, 24]: 6.67 µM
Kd [4, 24]: ≥ 77.8 µM
Kd [7, 24]: 0.617 µM
Kd [16]: 0.161 µM
Kd [17]: ≥ 44.7 µM

Sequence: GTHYQNHGF
Kd [1, 18]: 0.00602 µM

Sequence: AFNCTFEYI
Kd [5, 24]: 1.4 µM
Kd [2, 24]: ≥ 70.3 µM
Kd [6, 24]: 0.0861 µM
Kd [3, 24]: 0.322 µM
Kd [4, 24]: 9.36 µM
Kd [7, 24]: 1.4 µM

Sequence: PEDPIEVALY
Kd [5, 20]: ≥ 70.4 µM
Kd [2, 20]: ≥ 70.3 µM
Kd [6, 20]: ≥ 69.7 µM
Kd [3, 20]: 10.1 µM
Kd [4, 20]: ≥ 70 µM
Kd [7, 20]: 1.22 µM

Sequence: GYKNVRITF
Kd [5, 24]: ≥ 78.1 µM
Kd [2, 24]: 6.99 µM
Kd [6, 24]: ≥ 54.1 µM
Kd [3, 24]: 3.7 µM
Kd [4, 24]: 11 µM
Kd [7, 24]: ≥ 23.1 µM
